Legend:
[1] = target: T1, human Tumor Necrosis Factor alpha (human, UniProt P01375 77-233); test: cell-based or functional assay
[2] = target: T1, human Tumor Necrosis Factor alpha; test: in vitro receptor binding assay: biotinylated human TNF-alpha pre-incubated with VHH, binding to coated Enbrel
[3] = target: T2, mouse TNF-alpha (mouse, UniProt P06804 80-235); test: cell-based or functional assay
T2 sequence (looked up): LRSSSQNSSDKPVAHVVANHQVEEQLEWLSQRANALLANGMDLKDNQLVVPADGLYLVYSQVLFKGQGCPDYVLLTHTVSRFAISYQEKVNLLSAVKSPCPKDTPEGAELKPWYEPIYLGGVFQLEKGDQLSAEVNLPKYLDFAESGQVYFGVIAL

T1 sequence (P01375 77-233 limits assumed): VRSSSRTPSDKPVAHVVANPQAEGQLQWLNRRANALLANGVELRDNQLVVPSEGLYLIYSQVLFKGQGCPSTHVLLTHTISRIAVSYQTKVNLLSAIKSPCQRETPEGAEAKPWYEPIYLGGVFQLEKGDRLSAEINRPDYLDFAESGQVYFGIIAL

B1: TRI 3E (VHH)
chain: QVQLQESGGGLVQPGGSLRLSCAASGRTFSDHSGYTYTIGWFRQAPGKEREFVARIYWSSGNTYYADSVKGRFAISRDIAKNTVDLTMNNLEPEDTAVYYCAARDGIPTSRSVESYNYWGQGTQVTVSSEPKTPKPQPAAAQVQLQESGGGLVQPGGSLRLSCAASGRTFSDHSGYTYTIGWFRQAPGKEREFVARIYWSSGNTYYADSVKGRFAISRDIAKNTVDLTMNNLEPEDTAVYYCAARDGIPTSRSVESYNYWGQGTQVTVSSEPKTPKPQPAAAQVQLQESGGGLVQPGGSLRLSCAASGRTFSDHSGYTYTIGWFRQAPGKEREFVARIYWSSGNTYYADSVKGRFAISRDIAKNTVDLTMNNLEPEDTAVYYCAARDGIPTSRSVESYNYWGQGTQVTVSS
[1]
  IC50, cell based assay using KYM cells (TNF-alpha 1.29 ng/ml): 20000 nM

B2: VHH#12B (VHH)
VHH: QVQLQESGGGLVQPGGSLRLSCAASGFEFENHWMYWVRQAPGKGLEWVSTVNTNGLITRYADSVKGRFTISRDNAKYTLYLQMNSLKSEDTAVYYCTKVLPPYSDDSRTNADWGQGTQVTVSS
[2]
  IC50: 66 nM

B3: VHH#12B Q1E + Q5L + A74S + Y76N + K83R + P84A (VHH)
VHH: EVQLLESGGGLVQPGGSLRLSCAASGFEFENHWMYWVRQAPGKGLEWVSTVNTNGLITRYADSVKGRFTISRDNSKNTLYLQMNSLRAEDTAVYYCTKVLPPYSDDSRTNADWGQGTQVTVSS
notes: Made by site-directed mutagenesis and purified on TALON; The tags are not described for the mutant; also called mutant Q1E+Q5L+A74S+Y76N+K83R+P84A; mutant 1E+Q5LA74S+Y76N+K83R+P84A
[2]
  IC50: 200 nM
  fold increase of IC50 against wild type VHH#12B: 3 fold

B4: VHH#m9E (VHH)
VHH: EVQLVESGGGLVQAGGSLRLSCAASGGTLSSYITGWFRQAPGKEREFVGAVSWSSSTIVYADSVEGRFTISRDNHQNTVYLQMDSLKPEDTAVYYCAARPYQKYNWASASYNVWGQGTQVTVSS
[3]
  IC50, MTT cytotoxicity assay with L929 cells (mouse TNF-alpha 65 pg/ml): 25 nM

B5: TETRA 3E (VHH)
chain: QVQLQESGGGLVQPGGSLRLSCAASGRTFSDHSGYTYTIGWFRQAPGKEREFVARIYWSSGNTYYADSVKGRFAISRDIAKNTVDLTMNNLEPEDTAVYYCAARDGIPTSRSVESYNYWGQGTQVTVSSEPKTPKPQPAAAQVQLQESGGGLVQPGGSLRLSCAASGRTFSDHSGYTYTIGWFRQAPGKEREFVARIYWSSGNTYYADSVKGRFAISRDIAKNTVDLTMNNLEPEDTAVYYCAARDGIPTSRSVESYNYWGQGTQVTVSSEPKTPKPQPAAAQVQLQESGGGLVQPGGSLRLSCAASGRTFSDHSGYTYTIGWFRQAPGKEREFVARIYWSSGNTYYADSVKGRFAISRDIAKNTVDLTMNNLEPEDTAVYYCAARDGIPTSRSVESYNYWGQGTQVTVSSEPKTPKPQPAAAQVQLQESGGGLVQPGGSLRLSCAASGRTFSDHSGYTYTIGWFRQAPGKEREFVARIYWSSGNTYYADSVKGRFAISRDIAKNTVDLTMNNLEPEDTAVYYCAARDGIPTSRSVESYNYWGQGTQVTVSS
[1]
  IC50, cell based assay using KYM cells (TNF-alpha 1.29 ng/ml): 6000 nM

B6: VHH#m4B (VHH)
VHH: QVQLQDSGGGLVQAGGSLRLSCGVSGLSFSGYTMGWFRQAPGKEREFAAAIGWNSGTTEYRNSVKGRFTISRDNAKNTVYLQMNSLKPEDTAVYYCAASPKYMTAYERSYDFWGQGTQVTVSS
[3]
  relative potency, MTT cytotoxicity assay with the murine cell line L929: 10 fold

B7: VHH#m3F (VHH)
VHH: QVQLQDSGGGLVQAGGSLRLSCAASGGTFSSIIMAWFRQAPGKEREFVGAVSWSGGTTVYADSVLGRFEISRDSARKSVYLQMNSLKPEDTAVYYCAARPYQKYNWASASYNVWGQGTQVTVSS
[3]
  IC50, MTT cytotoxicity assay with L929 cells (mouse TNF-alpha 65 pg/ml): 2 nM
  relative potency, MTT cytotoxicity assay with the murine cell line L929: 10 fold

B8: BIV 3E (VHH)
chain: QVQLQDSGGGLVQAGGSLRLSCAASGGTFSSIIMAWFRQAPGKEREFVGAVSWSGGTTVYADSVLGRFEISRDSARKSVYLQMNSLKPEDTAVYYCAARPYQKYNWASASYNVWGQGTQVTVSSEPKTPKPQPAAAQVQLQDSGGGLVQAGGSLRLSCAASGGTFSSIIMAWFRQAPGKEREFVGAVSWSGGTTVYADSVLGRFEISRDSARKSVYLQMNSLKPEDTAVYYCAARPYQKYNWASASYNVWGQGTQVTVSS
[1]
  IC50, cell based assay using KYM cells (TNF-alpha 1.29 ng/ml): 0.03 nM
  fold lower IC50 than the monomer VHH#3E, cell based assay using KYM cells: 400 fold

B9: BIV#m3F (VHH)
chain: QVQLQDSGGGLVQAGGSLRLSCAASGGTFSSIIMAWFRQAPGKEREFVGAVSWSGGTTVYADSVLGRFEISRDSARKSVYLQMNSLKPEDTAVYYCAARPYQKYNWASASYNVWGQGTQVTVSSEPKTPKPQPAAAQVQLQDSGGGLVQAGGSLRLSCAASGGTFSSIIMAWFRQAPGKEREFVGAVSWSGGTTVYADSVLGRFEISRDSARKSVYLQMNSLKPEDTAVYYCAARPYQKYNWASASYNVWGQGTQVTVSS
[3]
  IC50, MTT cytotoxicity assay with L929 cells (mouse TNF-alpha 65 pg/ml): 2000 nM
  fold change of IC50 against monovalent 3F, MTT cytotoxicity assay with L929 cells: 1000 fold
